Measured values from publication PMC11808092.

What was measured:
[1] = target: human dUTPase (human)
[2] = target: human dUTPase (human); assay: steady state enzyme inhibition assay; apparent; 50 nM hDUT preincubated 5 min with varying Stl variant, 30 µM dUTP, 25 °C, 1 mM HEPES, 150 mM KCl, 5 mM MgCl2, 40 µM phenol red, pH 7.5; quadratic binding equation
[3] = target: human dUTPase (human); assay: crystal structure; Stl^NT and hDUT mixed in 1:1 monomer molar ratio, ca. 20 mg/ml; crystals at 20 °C from 1.5 M ammonium sulfate, 0.1 M sodium acetate pH 5; 3.2 Å
[4] = target: biotinylated Stl^NT (residues 1-159) with C-terminal Avi-tag (Staphylococcus aureus); assay: BLI; biotinylated Stl construct on streptavidin SAX biosensors, hDUT in solution; Octet K2, 30 °C, 50 mM HEPES, 300 mM NaCl, 5 mM MgCl2, pH 7.5; at least five dilutions; 1:1 binding model; substrate-free

Substance: Stl protein, wild type, full-length (natural protein)
- Residual activity of 50 nM hDUT at 300 nM Stl concentration [1]: 30%

Substance: Stl-E189A (natural protein)
- Residual activity of 50 nM hDUT at 300 nM Stl concentration [1]: 77%

Substance: Stl-I181A, I184A (natural protein)
- Residual activity of 50 nM hDUT at 300 nM Stl concentration [1]: 70%
- Ki [2]: 2.3 nM

Substance: Stl-L192A, F196A (natural protein)
- Residual activity of 50 nM hDUT at 300 nM Stl concentration [1]: 100%

Substance: Stl-S114D (natural protein)
- Residual activity of 50 nM hDUT at 300 nM Stl concentration [1]: 100%

Substance: Stl-S114E (natural protein)
- Residual activity of 50 nM hDUT at 300 nM Stl concentration [1]: 100%

Substance: Stl-V55S (natural protein)
- Residual activity of 50 nM hDUT at 300 nM Stl concentration [1]: 75%

Substance: Stl-Y106K (natural protein)
- Residual activity of 50 nM hDUT at 300 nM Stl concentration [1]: 83%

Substance: Stl-Y106R (natural protein)
- Residual activity of 50 nM hDUT at 300 nM Stl concentration [1]: 89%

Substance: Stl-Y116R (natural protein)
- Residual activity of 50 nM hDUT at 300 nM Stl concentration [1]: 69%

Substance: Stl-derived peptide 95-…-117
- Residual activity of 50 nM hDUT at 300 nM Stl concentration [1]: 70%
- Ki [2]: 13 nM

Substance: Stl^NT (amino terminal domain of Stl, residues 1-159) (domain or fragment)
- Residual activity of 50 nM hDUT at 300 nM Stl concentration [1]: 50%
- Ki [2]: 31 nM

Substance: human dUTPase (enzyme)
- stoichiometry N [3]: 3
- Kd [4]: 0.177 nM
- koff [4]: 0.000106 s⁻¹
- kon [4]: 600000 M⁻¹ s⁻¹
